Numbering of substitutions follows the chain as printed. Numbers in names are those of the source.

T1: μ1A (AP1M1) expressed from cDNA in COS-7 cells, Q9BXS5
T1 chain: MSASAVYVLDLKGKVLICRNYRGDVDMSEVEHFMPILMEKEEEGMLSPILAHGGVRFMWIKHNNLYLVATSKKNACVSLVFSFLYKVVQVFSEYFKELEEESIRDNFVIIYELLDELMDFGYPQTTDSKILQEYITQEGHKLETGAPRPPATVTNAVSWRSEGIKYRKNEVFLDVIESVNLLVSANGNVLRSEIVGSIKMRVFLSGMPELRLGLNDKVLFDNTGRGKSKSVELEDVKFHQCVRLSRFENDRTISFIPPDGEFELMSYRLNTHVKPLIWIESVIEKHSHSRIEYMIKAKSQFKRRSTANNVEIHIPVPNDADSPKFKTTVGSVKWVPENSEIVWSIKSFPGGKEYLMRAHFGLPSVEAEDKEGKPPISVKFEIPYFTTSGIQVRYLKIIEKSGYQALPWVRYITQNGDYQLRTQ

B1: wild-type human sodium/iodide symporter (hNIS), Q92911 L562A; L563A (protein)
chain: MEAVETGERPTFGAWDYGVFALMLLVSTGIGLWVGLARGGQRSAEDFFTGGRRLAALPVGLSLSASFMSAVQVLGVPSEAYRYGLKFLWMCLGQLLNSVLTALLFMPVFYRLGLTSTYEYLEMRFSRAVRLCGTLQYIVATMLYTGIVIYAPALILNQVTGLDIWASLLSTGIICTFYTAVGGMKAVVWTDVFQVVVMLSGFWVVLARGVMLVGGPRQVLTLAQNHSRINLMDFNPDPRSRYTFWTFVVGGTLVWLSMYGVNQAQVQRYVACRTEKQAKLALLINQVGLFLIVSSAACCGIVMFVFYTDCDPLLLGRISAPDQYMPLLVLDIFEDLPGVPGLFLACAYSGTLSTASTSINAMAAVTVEDLIKPRLRSLAPRKLVIISKGLSLIYGSACLTVAALSSLLGGGVLQGSFTVMGVISGPLLGAFILGMFLPACNTPGVLAGLGAGLALSLWVALGATLYPPSEQTMRVLPSSAARCVALSVNASGLLDPALLPANDSSRAPSSGMDASRPALADSFYAISYLYYGALGTLTTVLCGALISCLTGPTKRSTLAPGAAWWDLARQTASVAPKEEVAILDDNLVKGPEELPTGNKKPPGFLPTNEDRLFFLGQKELEGAGSWTPCVGHDGGRDQQETNL
B2: wild-type human sodium/iodide symporter (hNIS), Q92911 L583A (protein)
chain: B1 chain with A562L, A563L, L583A
B3: wild-type human sodium/iodide symporter (hNIS), Q92911 L594A (protein)
chain: B1 chain with A562L, A563L, L594A
B4: wild-type human sodium/iodide symporter (hNIS), Q92911 L121A (protein)
chain: B1 chain with L121A, A562L, A563L
B5: wild-type human sodium/iodide symporter (hNIS), Q92911 Y120A (protein)
chain: B1 chain with Y120A, A562L, A563L
B6: wild-type human sodium/iodide symporter (hNIS), Q92911 Y118A (protein)
chain: B1 chain with Y118A, A562L, A563L
B7: wild-type human sodium/iodide symporter (hNIS), Q92911 L587A (protein)
chain: B1 chain with A562L, A563L, L587A

In this assay the target is T1, μ1A (AP1M1) expressed from cDNA in …. Kind of assay: co-immunoprecipitation with Western blot quantification. The note with it: chain shown with the change; COS-7 cells cotransfected with hNIS and μ1A; IP α-μ1A, WB α-hNIS; parent: est. 100; read off a plot. In general terms: In western blotting, separated proteins are transferred to a membrane and probed.
In the case of B1, the percent of parent (% Relative to hNIS WT) was found to be 9. In the case of B2 it was 60; in that of B3, 100; in that of B4, 17.

For the molecule B5, the percent of parent (% Relative to hNIS WT) was 65. In the case of B6 it was 80; in that of B7, 100.

The values above are taken from paper PMC9618391 (2022).
